According to publication PMC2891668 (Molecular cancer therapeutics, 2009):

Target: the molecule itself
Assay: crystal structure

B1: NM23-H2 R88A mutant (enzyme, human)
chain: ANLERTFIAIKPDGVQRGLVGEIIKRFEQKGFRLVAMKFLRASEEHLKQHYIDLKDRPFFPGLVKYMNSGPVVAMVWEGLNVVKTGAVMLGETNPADSKPGTIRGDFCIQVGRNIIHGSDSVKSAEKEISLWFKPEELVDYKSCAHDWVYE
In the case of B1, the “stoichiometry N” value is reported as 6.
